Assay results as given in patent US20190119348A1, “PARATHYROID HORMONE RECEPTOR 1 ANTAGONIST AND INVERSE AGONIST POLYPEPTIDES AND METHODS OF THEIR USE” (The General Hospital Corporation, priority 2016, published 2019).

biological target: human parathyroid hormone receptor 1 (hPTHR1) (human) (UniProt Q03431); assay: cell-based or functional assay
Sequence (Q03431 27-593): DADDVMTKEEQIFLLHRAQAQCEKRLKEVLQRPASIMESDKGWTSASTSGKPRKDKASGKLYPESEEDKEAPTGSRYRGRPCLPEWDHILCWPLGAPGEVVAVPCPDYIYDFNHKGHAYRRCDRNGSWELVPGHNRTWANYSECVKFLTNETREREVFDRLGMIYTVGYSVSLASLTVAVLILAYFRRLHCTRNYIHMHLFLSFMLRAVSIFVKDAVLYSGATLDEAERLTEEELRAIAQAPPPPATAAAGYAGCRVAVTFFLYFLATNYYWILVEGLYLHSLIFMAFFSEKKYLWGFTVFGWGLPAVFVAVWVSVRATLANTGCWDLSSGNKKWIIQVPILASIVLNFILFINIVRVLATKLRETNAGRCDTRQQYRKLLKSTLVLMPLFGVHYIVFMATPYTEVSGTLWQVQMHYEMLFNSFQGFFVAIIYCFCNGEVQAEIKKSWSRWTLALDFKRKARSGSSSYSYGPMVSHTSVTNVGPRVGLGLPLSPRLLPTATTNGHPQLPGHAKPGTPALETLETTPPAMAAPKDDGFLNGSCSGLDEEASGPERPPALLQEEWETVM

| IC50 (nanomolar value of the pIC50), antagonism of PTH(1-34)-induced cAMP response, GP-2.3 cells | IC50 (nanomolar value of the pIC50), antagonism of PTH(1-34)-induced cAMP response, SGS-72 cells | IC50 (nanomolar value of the pIC50), antagonism of PTHrP(1-36)-induced cAMP response, SGS-72 cells | IC50, antagonism of PTH(1-34) (0.3 nM)-induced cAMP response, SGS-72 cells | IC50, antagonism of PTHrP(1-36) (0.3 nM)-induced cAMP response, SGS-72 cells | pIC50, antagonism of PTH(1-34) (0.3 nM)-induced cAMP response, SGS-72 cells | pIC50, antagonism of PTH(1-34)-induced cAMP response (GloSensor), GP-2.3 cells | pIC50, antagonism of PTH(1-34)-induced cAMP response, SGS-72 cells | pIC50, antagonism of PTHrP(1-36) (0.3 nM)-induced cAMP response, SGS-72 cells | pIC50, antagonism of PTHrP(1-36)-induced cAMP response, SGS-72 cells | Substance |
| --- | --- | --- | --- | --- | --- | --- | --- | --- | --- | --- |
| 0.642 µM | 0.021 µM | 0.013 µM | 24.1 nM | 12.9 nM | 7.62 -log M | 6.19 -log M | 7.68 -log M | 7.89 -log M | 7.89 -log M | PEG20-Nle8, TMR, dW12, W23, C37-LA-PTH(5-37)-1978 (peptide) |
| 0.224 µM |  |  | 4.39 nM |  | 8.36 -log M | 6.65 -log M |  |  |  | Nle8, dW12, W23, C37-LA-PTH(5-37)-1974 (peptide) |
| 1.96 µM |  |  | 18.5 nM |  | 7.73 -log M | 5.71 -log M |  |  |  | TMR-dW12, W23, C37-LA-PTH(5-37)-1976 (peptide) |
| 2.8 µM |  |  |  |  |  | 5.55 -log M |  |  |  | Nle8, TMR, dW12, C35-bPTH(7-35)-1977 (peptide) |
|  |  |  | 3.34 nM |  | 8.48 -log M |  |  |  |  | TMR-Nle8, dW12, W23-LA-PTH(7-36)-1993 (peptide) |
|  |  |  | 1.75 nM |  | 8.76 -log M |  |  |  |  | Nle8, dW12, W23, Y36-LA-PTH(5-36)-1954 (peptide) |
|  |  |  | 1.49 nM |  | 8.83 -log M |  |  |  |  | TMR-L11, dW12, W23-LA-PTH(7-36)-2002 (peptide) |
|  |  |  | 2.13 nM |  | 8.67 -log M |  |  |  |  | TMR-L11, dW12, W23-LA-PTH(5-36)-2004 (peptide) |
|  |  |  | 3.02 nM |  | 8.52 -log M |  |  |  |  | TMR-Nle8, L11, dW12, W23-LA-PTH(5-36)-2000 (peptide) |
|  |  |  | 1.95 nM |  | 8.71 -log M |  |  |  |  | TMR-dW12, W23-LA-PTH(7-36)-1991 (peptide) |
| 3.61 µM | 0.012 µM | 0.01 µM | 20.3 nM | 9.71 nM | 7.69 -log M | 5.44 -log M | 7.91 -log M | 8.01 -log M | 8.01 -log M | Nle8, TMR, dW12, W23, C37-LA-PTH(5-37)-1975 (peptide) |
|  |  |  | 2.21 nM |  | 8.65 -log M |  |  |  |  | TMR-Nle8, L11, dW12, W23-LA-PTH(7-36)-1998 (peptide) |
| 0.16 µM |  |  | 3.23 nM |  | 8.49 -log M | 6.8 -log M |  |  |  | TMR-dW12, W23-LA-PTH(5-36)-1953 (peptide) |
